In article PMC10471174:

Biological target: T1, purified human SAP30 protein (GST removed) (human), O75446
T1 chain: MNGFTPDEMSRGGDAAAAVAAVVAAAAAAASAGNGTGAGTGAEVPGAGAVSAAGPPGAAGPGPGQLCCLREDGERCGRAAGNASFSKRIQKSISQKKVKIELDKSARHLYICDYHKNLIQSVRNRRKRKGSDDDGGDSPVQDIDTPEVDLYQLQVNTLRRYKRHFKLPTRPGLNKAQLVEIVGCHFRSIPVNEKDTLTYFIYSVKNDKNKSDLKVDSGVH
Test: SDS-PAGE under non-reducing conditions; purified SAP30 (GST removed) treated with or without β-mercaptoethanol and boiling; Coomassie staining and immunoblot
Conditions: remark: other sources report otherwise

stoichiometry N: 2
B1: purified human SAP30 protein (GST removed), O75446 1-220 (natural protein)
chain: T1 chain
